Columns and labels:
[1] = target: Toxoplasma gondii ERK7 kinase domain, ERK7_(2–358); assay: fluorescence polarisation competition; settings: competition with fluorescein-labeled wild-type AC9
[2] = target: Toxoplasma gondii ERK7 kinase domain, ERK7_(2–358) (Toxoplasma gondii); assay: fluorescence polarisation; competition: unlabeled AC9 constructs titrated against 10 nM fluorescein-AC9 and 100 nM ERK7; single-site inhibition, global fit
[3] = target: APS 609-621 (Rattus norvegicus) (UniProt Q9Z200); settings: cited from earlier work
[4] = target: Shc 423-435 (Homo sapiens) (UniProt P29353); settings: cited from earlier work
[5] = target: fluorescein-labeled AC9_(419–452) with an additional N-terminal Cys (Toxoplasma gondii); assay: fluorescence polarisation; ERK7 2–358 serially diluted against 10 nM fluorescein-AC9 419–452, 20 μL in 384-well plate; single-site binding, global fit of three replicate experiments
[6] = target: fluorescein-labeled synthetic MEK2_(4–16) peptide (rat) (rat) (UniProt P36506); assay: fluorescence polarisation; ERK7 titrated against 100 nM fluorescein-labeled synthetic MEK2 4–16 peptide; single-site binding, global fit

Chain of Grb2 SH2 (P62993 57-155): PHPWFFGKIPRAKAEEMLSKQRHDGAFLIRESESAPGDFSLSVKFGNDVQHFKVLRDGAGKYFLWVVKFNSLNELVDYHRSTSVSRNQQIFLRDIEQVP

Substance: AC9 wild type R421A; K423A
- Ki [1]: 63 nM

Substance: AC9_(R421A/K423A) (domain or fragment)
- fold reduction of affinity against wild-type AC9 [2]: 4 fold

Substance: AC9_(W438A) (domain or fragment)
- Ki [2]: 1600 nM

Substance: Cbl TKB (from UniProt P22681)
- Kd [3]: 43 nM

Substance: Grb2 SH2 (from UniProt P62993)
- Kd [4]: 18 nM

Substance: Toxoplasma gondii ERK7 kinase domain, ERK7_(2–358) (domain or fragment)
- Kd [5]: 34 nM
- Kd [6]: 12 µM

Substance: WT AC9_(401–452) (domain or fragment)
- Ki [2]: 15 nM

From PMC7275706
